{"source": "the DeepSol protein solubility set"}
{"test": "soluble on expression in E. coli; label from the status in PepcDB or PDB records"}
{"sequence": "MAGDPNSMTVSHHNASTARFYALRLLPGQEVFSQLHAFVQQNQLRAAWIAGCTGSLTDVALRYAGQEATTSLTGTFEVISLNGTLELTGEHLHLAVSDPYGVMLGGHMMPGCTVRTTLELVIGELPALTFSRQPCAISGYDELHISSRLEHHHHHH", "soluble on expression in E. coli": "soluble"}
{"sequence": "MGSDKIHHHHHHMSQVIPASSQEKRRERIVSYVTRHGFARVEALAELFEVSAMTIHRDLEALAADNLVERIRGGARSVSPSMSELAVEQRRHLHRTVKEALCTAAARLIPEGAVVAIDDSTTLESLVEKLPQRSPSALITHSLKTMADHRVRAGMSDIRLIACAGLYFAETDSFLGKATSAQLNELSADISFVSTTAVRATGEVPALFHPDMEAADTKRALIGIGSVRVLVVDSSKFGSAGVFKVASIEEFDHIIIDQQCTREQRDLLRNSRAQIHVIDHNGDEILDTPTEEDF", "soluble on expression in E. coli": "not soluble"}
{"sequence": "MGSDKIHHHHHHMNNSASEQKWKWWPLLPLYPYGRRRTIFRELVPNQIWSFEQLQGIYYVAVPVRLLVIRVKNELMIINPLPPTSELLKEIDLLQKKIGPVKTIVLPTASGLEHKIGLPALARAFPNAKIWLCPGQWSFPFQLPFDWLGIPSNRTNILLADGFPHGDDCEWISLGPIDIGLARFQEISCFHKPTKSLLVTDALVGIEATPPELFNLDPTPLLFHSREKGSEELIDSPIARRKGWLRLVLFASYLKPEKLEIPKIKEILENSFKPKMRNKRSHFGIYPFAWQEGWDLSAKKLVGEKTPLIQIAPVIERLVFPRGKKAFISWLNKIESLKGISFLISAHYSGKVRFTTNEIRALKVKIDNSNWEKTQGDFKFLSWFDQKLLNFGIVPKNPLKKFSD", "soluble on expression in E. coli": "not soluble"}
{"sequence": "MGSDKIHHHHHHMASHLTDGVIHATTRAASLHWCIAQATKTDGALNGDGYLLKRDEDTLLFALADGVGSGQLAHDASSACLRILAASDDMDLPSLFETCHTQLTSTRGAALGLVKFFLGQGFLEWAAVGDIEGCIYPTEPTSSRTISMMQRGGTLGHYFTGITPQQHAWPPTSMLALCTDGVSRKFRERHPNDQAPREFADSCFNDFGRDNDDRTLATFSWTQEGT", "soluble on expression in E. coli": "not soluble"}
{"sequence": "MGSDKIHHHHHHMETIGQTLAKKDNHKYDTEKMTQAILSDQEIANFIAAHHLSKEQIKISLPKFNQYRLERTRFENHDQAYIAKGYQPLLVMNEGYADVAYKETKELIAAKKTQAISDRINVVSLPRSYKNISFDDINLDDVKRLDVFKRVADFVEQYPNPEQKGLYLYGDMGIGKSYLMAAMAHELSEQRGAATTLLHFPSFTIDVKNAINTGTVKKEIDAVKTADILILDDIGAEQSTSWIRDEVLQVILQYRMLEELPTFFTSNYSFKDLEAKLANIKGSDETWQAKRVMERIRYLAKEIHLEGENRR", "soluble on expression in E. coli": "not soluble"}
{"sequence": "MGSDKIHHHHHHVLNVNELVKTELHCHLDGSLSLGVIRQLAQMAKITIPAEDEALRKLVSVHGKVDSLMAYLKLFDFVRPLLQTATALELAAYDLVRQAASDKVIYIEVRFAPELSTDQDLTILEAVSAVLVGLNRGQEDFGVLAKLLVCGLKQTNTNQTKELFSAIADLAPKGLVGFDFAGNEADYPTEELRDIIQFTQSLGYPMTFHAGECGCVINVIQALELGIRRIGHGTALTRNPEAIQAFVNSGATLEMCLTSNLQTGAADSIEYFPYRELVEAGANITINTDNRTVSNTTLNREYQLFVEYFGTSKADFYRFNQNAIQASFASEGEKKVLLELLDQQY", "soluble on expression in E. coli": "not soluble"}
{"sequence": "MGSDKIHHHHHHMNTLANWKKFLLVAVIICFLVPIMTKAEIAEADTSSELIVSEAKNLLGYQYKYGGETPKEGFDPSGLIQYVFSKADIHLPRSVNDQYKIGTAVKPENLKPGDILFFKKEGSTGTVPTHDALYIGDGQMVHSTQSKGVIITNYKKSSYWSGTYIGARRIAADPATADVPVVQEAEKYIGVPYVFGGSTPSEGFDCSGLVQYVFQQALGIYLPRSAEQQWAVGEKVAPQNIKPGDVVYFSNTYKTGISHAGIYAGAGRFIQASRSEKVTISYLSEDYWKSKMTGIRRFDNLTIPKENPIVSEATLYVGEVPYKQGGVTPETGFDTAGFVQYVYQKAAGISLPRYATSQYNAGTKIEKADLKPGDIVFFQSTSLNPSIYIGNGQVVHVTLSNGVTITNMNTSTYWKDKYAGSIRVQ", "soluble on expression in E. coli": "not soluble"}
{"sequence": "PFEPLITAVIETSLNTLIKDDPALGRRLARLKGQVIQVHLKEIDKTLTFVFSQQIDVLGNYEGQPDCYLSLNLSVLPELRDQANITRLIKQDKLELEGDIQLAQKFSQLMTDCKPDIEEWLSRVTGDVVAHTLVQGTKNVGGFFVSQAEKHQRHLAQVVTEEWKLAPAPLEVAYFCDQVDEVRSQASRVEARLNALLSKVGSDKPA", "soluble on expression in E. coli": "not soluble"}
{"sequence": "MADRPQLSIIIPVFNEAKILQKSPTENTRQYLGQFTEDQRIEILIIDGGSQDSTVELCQTYADSLPLHVFISPQTGRANQMNYGASLSRSEWLLFLHLDSILPHDFFTQIAEILTNSSYIAGAFGLTIDLPGRPYRWLEKLILWRSIYAQKPYGDQGLFIQRQDFQQLGGFADLPIMEDYQFMQKLGKQRGKVAIAGGKVITSGRRWQKLGLLRTTAINQLVVAGYHLGVSPQTLVHWYRGAKPNRGNRPNSDGTSCLEHHHHHH", "soluble on expression in E. coli": "soluble"}
{"sequence": "MMETQNVKDTVRQIFTEYLTANGHRKTPERYAILETIYSIDGHFDIDMLYSRMMDQENFRVSRATLYNTIILLINARLIIKHQFGTSSQYEKSYNRETHHHQICTQCGKVTEFQNEELQHAIENTKLSRFQLSHYSLYIYGLCSKCDRANKRKKVSNNNKKEK", "soluble on expression in E. coli": "not soluble"}
{"sequence": "MSLADLLDTVKQRGALKIALEGTYPPFNFKDAKQQLTGFDVEIATEIARRMKVKPEFVTAEWSGLLAGLQSGKFDIVVNQVGVTAQRQAVFDFSQPYTYSSAQLIVRKNESRDFKNLADLKGKKLGVGQGSNYADMAKAAAGVQVKTYPGAPEYLQDLATGRLDAALNDSLLIPFAIKQAKLPLKAGAPVGEVAAMAIPFAKGNPQFKSEIDKALGGMKADGTFRKISVKWFGIDVSKAEGHHHHHH", "soluble on expression in E. coli": "soluble"}
{"sequence": "MRKWRIEDSEELYNITGWGTSYFSINDAGHVVVTPRRDGVTVDLKELVDELQLRDVASPMLLRFPDILDNRIEKMSSCFKQAAEEYGYKAENFIIYPIKVNQMRPVVEEIISHGKKFNLGLEAGSKPELHAVIAVNTDSDSLIVCNGYKDESYIELALLAQKMGKRIFLVVEKMNELKLIAKMAKQLNVQPNIGIRIKLASSGSGKWEESGGDASKFGLTSSELLEALDFMESKGLKDCLKLIHFHIGSQVTKIRRIKTALREASQFYVQLHSMGFNVEFVDIGGGLGVDYDGTRSSNSEGSVNYSIQEYVNDSISTLVDVSDKNGIPHPNIITESGRALTAHHSVLIFEVLETATLPEWDDEEEIAPDAHELVQELYSIWDSLNQNKMLEAWHDAQQIREEALDLFSHGIVDLKTRAQIERLYWSITREINQIAGGLKHAPDEFRGLSKLLADKYFCNFSLFQSLPDSWAIDQIFPIMPIQRLDEKPERSATLQDITCDSDGKIANFISTRNVAHYLPVHSLKKTEPYYLAVFLVGAYQEILGDMHNLFGDTNAVHVSVNEKGYNIEQIIDGETVAEVLDYVQYNPKKLVRTLETWVTKSVKEGKISLEEGKEFLSNYRSGLYGYTYLE", "soluble on expression in E. coli": "not soluble"}
{"sequence": "MEEFTWRVGGPQGGGIETAATLFARAVGKGGWWVATKREYHSNIMGRHSYLDVRLARKPVQAFRERVDFLVALDGETLARHLGEVREGGVVLYDPKVLELTLHKLPMLDHRVAEDLAKRLGQADPSLKEVLQAYAEAGVQPLPYPFEAVADRIGEALGVPSLKARRTLNTIAVAASLHLLSYPLEPLLQALALQFRGEVLELNRKVAEAVYREEAPRLPFRLEVLGPAPGRIYLTGAQAAALGKLAGGLRFQTYYPISPATDESVFLEAHTHLPGADVAVVQTEDEIAAVNMAVGAALAGAKAATATSGPGFSLMAEGLGFAGMIEAPLVVTLYQRGGPSTGLPTRTEQGDLMFAIRGGHGEYPRLVLASGDILDAFLDAQKALAWAWRYQTVVVHLLDKFLASLAQSLPKEALKVLSLDGEKRLSPREGFGPYQRYAPGEDGLSPFIPIGTPGGFYWMTSDEHDPLGHITEDVELRELQMEKRMEKLELARKEIPLEDQYTLFRDGEVLVLGWGTVKGTLLEALDHLEGVGYLHLRLLWPFPRIAPLLEGKTLVTVEHNYSGQLADLVQQETLKRVHHRVVKYNGRPITLEEAVEALKAVREGRAPERLVLRKGV", "soluble on expression in E. coli": "soluble"}
